For this assay, the target named is T1, soluble peptide MHC complex of p53125-134 and soluble HLA*A2402 (human).
T1 construct: Soluble complex used for phage selection, ELISA and SPR; also called p53-A24; p53-A24 monomers
In words: surface plasmon resonance. In general terms: SPR reads the build-up and loss of mass on a sensor chip optically.

B1: P1C1_gl (antibody, V domains shown)
VH: QVQLQESGPGLVKPSQTLSLTCTVSGGSISSGGYYWSWIRQHPGKGLEWIGYIYYSGSTYYNPSLKSRVTISVDTSKNQFSLKLSSVTAADTAVYYCARENFGAFDHWGQGTLVTVSS
VL: QSVLTQPPSVSGAPGQRVTISCTGSSSNIGADYETHWYQQLPGTAPKLLIYGNTNRPSGVPDRFSGSKSGTSASLAITGLQAEDEADYYCQSYDSNLSAWVFGGGTKLTILS
notes: it induces ADCC, so it has an Fc; also called germline version of P1C1; original germline clone
Take B1: the Kd (usually the concentration at which binding is half-saturated) came to 364 nM.

For the origin of these results see patent US20200071406A1 (AGENCY FOR SCIENCE TECHNOLOGY AND RESEARCH, published 2020).
